# Results published in patent US20240307370A1, “SIGMA RECEPTOR LIGANDS FOR TREATING SARS-COV-2 INFECTION” (University of Florida Research Foundation, Incorporated, priority 2021, published 2024).
# Experiments:
# SARS-CoV-2 [1] = type: cell-based; conditions: 400 μg/ml, H23-hACE2, MOI 0.01, 48 hpi
# SARS-CoV-2 [2] = type: cell-based; conditions: 400 μg/ml, 48 hours after infection, vs DMSO alone
molecule,measurement,setting,value
"lactoferrin: host-iron sequestration protein; lactoferrin from human milk, MilliporeSigma (protein, UniProt P02788 20-710, looked up) Lactotransferrin: GRRRSVQWCAVSQPEATKCFQWQRNMRKVRGPPVSCIKRDSPIQCIQAIAENRADAVTLDGGFIYEAGLAPYKLRPVAAEVYGTERQPRTHYYAVAVVKKGGSFQLNELQGLKSCHTGLRRTAGWNVPIGTLRPFLNWTGPPEPIEAAVARFFSASCVPGADKGQFPNLCRLCAGTGENKCAFSSQEPYFSYSGAFKCLRDGAGDVAFIRESTVFEDLSDEAERDEYELLCPDNTRKPVDKFKDCHLARVPSHAVVARSVNGKEDAIWNLLRQAQEKFGKDKSPKFQLFGSPSGQKDLLFKDSAIGFSRVPPRIDSGLYLGSGYFTAIQNLRKSEEEVAARRARVVWCAVGEQELRKCNQWSGLSEGSVTCSSASTTEDCIALVLKGEADAMSLDGGYVYTAGKCGLVPVLAENYKSQQSSDPDPNCVDRPVEGYLAVAVVRRSDTSLTWNSVKGKKSCHTAVDRTAGWNIPMGLLFNQTGSCKFDEYFSQSCAPGSDPRSNLCALCIGDEQGENKCVPNSNERYYGYTGAFRCLAENAGDVAFVKDVTVLQNTDGNNNEAWAKDLKLADFALLCLDGKRKPVTEARSCHLAMAPNHAVVSRMDKVERLKQVLLHQQAKFGRNGSDCPDKFCLFQSETKNLLFNDNTECLARLHGKTTYEKYLGPQYVAGITNLKKCSTSPLLEACEFLRK","effect on SARS-CoV-2 concentration (TCID50), words",SARS-CoV-2 [1],ineffective
same,decrease of N-protein RNA copies (qPCR),SARS-CoV-2 [2],28.0%
